# Experimental data from patent US20070248613A1.
# B1: D5 IgG (antibody, V domains shown)
# VH: QVQLVQSGAEVRKPGASVKVSCKASGDTFSSYAISWVRQAPGQGLEWMGGIIPIFGTANYAQKFQGRVTITADESTSTAYMELSSLRSEDTAIYYCARDNPTLLGSDYWGKGTLVTVSS
# VL: DIQMTQSPSTLSASIGDRVTITCRASEGIYHWLAWYQQKPGKAPKLLIYKASSLASGAPSRFSGSGSGTDFTLTISSLQPDDFATYYCQQYSNYPLTFGGGTKLEIK
# Target: IZN36 (HIV)
binder,measurement,value
B1,IC50 (read off the curve),0.6 nM
